# Measured values from IntAct's records for PubMed 29892012.
# B1: Histone-lysine N-methyltransferase SMYD1 (Homo sapiens), Q8NB12 (parent)
# chain: MTIGRMENVEVFTAEGKGRGLKATKEFWAADIIFAERAYSAVVFDSLVNFVCHTCFKRQEKLHRCGQCKFAHYCDRTCQKDAWLNHKNECSAIKRYGKVPNENIRLAARIMWRVEREGTGLTEGCLVSVDDLQNHVEHFGEEEQKDLRVDVDTFLQYWPPQSQQFSMQYISHIFGVINCNGFTLSDQRGLQAVGVGIFPNLGLVNHDCWPNCTVIFNNGNHEAVKSMFHTQMRIELRALGKISEGEELTVSYIDFLNVSEERKRQLKKQYYFDCTCEHCQKKLKDDLFLGVKDNPKPSQEVVKEMIQFSKDTLEKIDKARSEGLYHEVVKLCRECLEKQEPVFADTNIYMLRMLSIVSEVLSYLQAFEEASFYARRMVDGYMKLYHPNNAQLGMAVMRAGLTNWHAGNIEVGHGMICKAYAILLVTHGPSHPITKDLEAMRVQTEMELRMFRQNEFMYYKMREAALNNQPMQVMAEPSNEPSPALFHKKQ
# partner: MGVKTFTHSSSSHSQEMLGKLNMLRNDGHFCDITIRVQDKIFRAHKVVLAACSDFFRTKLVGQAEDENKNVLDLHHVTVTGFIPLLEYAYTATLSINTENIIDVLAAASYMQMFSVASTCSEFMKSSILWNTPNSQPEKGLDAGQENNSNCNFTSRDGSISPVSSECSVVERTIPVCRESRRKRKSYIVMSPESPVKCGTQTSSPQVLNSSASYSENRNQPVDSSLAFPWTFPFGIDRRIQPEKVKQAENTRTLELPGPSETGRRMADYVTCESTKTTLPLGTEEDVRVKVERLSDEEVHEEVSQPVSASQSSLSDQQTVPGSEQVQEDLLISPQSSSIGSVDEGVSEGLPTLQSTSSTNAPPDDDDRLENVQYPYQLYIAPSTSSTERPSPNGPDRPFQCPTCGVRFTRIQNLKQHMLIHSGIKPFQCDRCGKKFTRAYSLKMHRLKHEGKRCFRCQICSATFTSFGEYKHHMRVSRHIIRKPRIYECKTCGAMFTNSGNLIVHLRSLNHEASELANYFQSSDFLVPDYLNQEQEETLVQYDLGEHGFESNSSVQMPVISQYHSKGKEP
# B2: ADP/ATP translocase 3 (Homo sapiens), P12236 (parent)
# chain: MTEQAISFAKDFLAGGIAAAISKTAVAPIERVKLLLQVQHASKQIAADKQYKGIVDCIVRIPKEQGVLSFWRGNLANVIRYFPTQALNFAFKDKYKQIFLGGVDKHTQFWRYFAGNLASGGAAGATSLCFVYPLDFARTRLAADVGKSGTEREFRGLGDCLVKITKSDGIRGLYQGFSVSVQGIIIYRAAYFGVYDTAKGMLPDPKNTHIVVSWMIAQTVTAVAGVVSYPFDTVRRRMMMQSGRKGADIMYTGTVDCWRKIFRDEGGKAFFKGAWSNVLRGMGGAFVLVLYDELKKVI
# B3: Zinc finger protein ZXDC (Homo sapiens), Q2QGD7 (parent)
# chain: MDLPALLPAPTARGGQHGGGPGPLRRAPAPLGASPARRRLLLVRGPEDGGPGARPGEASGPSPPPAEDDSDGDSFLVLLEVPHGGAAAEAAGSQEAEPGSRVNLASRPEQGPSGPAAPPGPGVAPAGAVTISSQDLLVRLDRGVLALSAPPGPATAGAAAPRRAPQASGPSTPGYRCPEPQCALAFAKKHQLKVHLLTHGGGQGRRPFKCPLEGCGWAFTTSYKLKRHLQSHDKLRPFGCPVGGCGKKFTTVYNLKAHMKGHEQESLFKCEVCAERFPTHAKLSSHQRSHFEPERPYKCDFPGCEKTFITVSALFSHNRAHFREQELFSCSFPGCSKQYDKACRLKIHLRSHTGERPFICDSDSCGWTFTSMSKLLRHRRKHDDDRRFTCPVEGCGKSFTRAEHLKGHSITHLGTKPFECPVEGCCARFSARSSLYIHSKKHVQDVGAPKSRCPVSTCNRLFTSKHSMKAHMVRQHSRRQDLLPQLEAPSSLTPSSELSSPGQSELTNMDLAALFSDTPANASGSAGGSDEALNSGILTIDVTSVSSSLGGNLPANNSSLGPMEPLVLVAHSDIPPSLDSPLVLGTAATVLQQGSFSVDDVQTVSAGALGCLVALPMKNLSDDPLALTSNSNLAAHITTPTSSSTPRENASVPELLAPIKVEPDSPSRPGAVGQQEGSHGLPQSTLPSPAEQHGAQDTELSAGTGNFYLESGGSARTDYRAIQLAKEKKQRGAGSNAGASQSTQRKIKEGKMSPPHFHASQNSWLCGSLVVPSGGRPGPAPAAGVQCGAQGVQVQLVQDDPSGEGVLPSARGPATFLPFLTVDLPVYVLQEVLPSSGGPAGPEATQFPGSTINLQDLQ
# partner: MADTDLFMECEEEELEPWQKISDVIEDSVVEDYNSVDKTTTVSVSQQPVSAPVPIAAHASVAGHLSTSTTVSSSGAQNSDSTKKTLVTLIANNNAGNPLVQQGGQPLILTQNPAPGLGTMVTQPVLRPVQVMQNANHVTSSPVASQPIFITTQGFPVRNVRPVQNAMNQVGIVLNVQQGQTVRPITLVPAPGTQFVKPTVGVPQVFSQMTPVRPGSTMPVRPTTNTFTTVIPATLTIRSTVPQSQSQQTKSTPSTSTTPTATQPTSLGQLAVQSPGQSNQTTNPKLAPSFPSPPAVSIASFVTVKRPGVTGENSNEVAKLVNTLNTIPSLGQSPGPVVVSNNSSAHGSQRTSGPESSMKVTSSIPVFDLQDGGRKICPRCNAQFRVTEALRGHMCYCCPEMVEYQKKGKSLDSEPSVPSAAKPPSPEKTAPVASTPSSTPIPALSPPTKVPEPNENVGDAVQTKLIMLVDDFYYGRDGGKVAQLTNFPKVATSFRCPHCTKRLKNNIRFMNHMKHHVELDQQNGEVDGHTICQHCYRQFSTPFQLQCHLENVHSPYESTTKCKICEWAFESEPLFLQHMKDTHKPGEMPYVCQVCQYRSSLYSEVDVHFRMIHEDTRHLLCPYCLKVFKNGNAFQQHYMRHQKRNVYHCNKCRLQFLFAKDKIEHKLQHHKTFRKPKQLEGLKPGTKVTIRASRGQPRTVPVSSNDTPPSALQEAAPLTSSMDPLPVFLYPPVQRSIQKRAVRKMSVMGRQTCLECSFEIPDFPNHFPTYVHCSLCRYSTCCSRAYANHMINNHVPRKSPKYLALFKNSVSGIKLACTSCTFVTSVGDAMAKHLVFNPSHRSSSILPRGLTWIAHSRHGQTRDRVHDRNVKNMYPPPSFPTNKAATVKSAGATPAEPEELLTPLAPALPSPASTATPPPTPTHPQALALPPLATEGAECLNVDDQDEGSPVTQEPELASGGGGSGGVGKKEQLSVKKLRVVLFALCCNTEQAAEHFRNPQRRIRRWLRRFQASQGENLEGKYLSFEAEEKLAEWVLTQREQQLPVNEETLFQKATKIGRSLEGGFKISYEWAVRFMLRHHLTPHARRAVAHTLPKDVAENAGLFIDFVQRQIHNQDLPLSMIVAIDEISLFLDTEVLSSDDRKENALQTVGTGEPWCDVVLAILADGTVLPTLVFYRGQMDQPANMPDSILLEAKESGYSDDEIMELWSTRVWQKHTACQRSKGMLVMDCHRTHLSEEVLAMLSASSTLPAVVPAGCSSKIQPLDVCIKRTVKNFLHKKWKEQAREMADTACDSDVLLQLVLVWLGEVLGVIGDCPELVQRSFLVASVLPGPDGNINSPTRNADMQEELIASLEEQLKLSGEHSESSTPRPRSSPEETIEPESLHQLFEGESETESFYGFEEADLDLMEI
# B4: RNA-binding protein 3 (Homo sapiens), P98179 (parent)
# chain: MSSEEGKLFVGGLNFNTDEQALEDHFSSFGPISEVVVVKDRETQRSRGFGFITFTNPEHASVAMRAMNGESLDGRQIRVDHAGKSARGTRGGGFGAHGRGRSYSRGGGDQGYGSGRYYDSRPGGYGYGYGRSRDYNGRNQGGYDRYSGGNYRDNYDN
# Variants of: B1
# Details: with zbt44_human ZBTB44, Q8NCP5
row,Variant,effect of a mutation on the interaction
1,Q443R,disrupting interaction strength

# Variants of: B2
# Details: with ap2b1_human AP2B1, P63010
# ap2b1_human AP2B1, P63010, sequence (P63010 whole entry): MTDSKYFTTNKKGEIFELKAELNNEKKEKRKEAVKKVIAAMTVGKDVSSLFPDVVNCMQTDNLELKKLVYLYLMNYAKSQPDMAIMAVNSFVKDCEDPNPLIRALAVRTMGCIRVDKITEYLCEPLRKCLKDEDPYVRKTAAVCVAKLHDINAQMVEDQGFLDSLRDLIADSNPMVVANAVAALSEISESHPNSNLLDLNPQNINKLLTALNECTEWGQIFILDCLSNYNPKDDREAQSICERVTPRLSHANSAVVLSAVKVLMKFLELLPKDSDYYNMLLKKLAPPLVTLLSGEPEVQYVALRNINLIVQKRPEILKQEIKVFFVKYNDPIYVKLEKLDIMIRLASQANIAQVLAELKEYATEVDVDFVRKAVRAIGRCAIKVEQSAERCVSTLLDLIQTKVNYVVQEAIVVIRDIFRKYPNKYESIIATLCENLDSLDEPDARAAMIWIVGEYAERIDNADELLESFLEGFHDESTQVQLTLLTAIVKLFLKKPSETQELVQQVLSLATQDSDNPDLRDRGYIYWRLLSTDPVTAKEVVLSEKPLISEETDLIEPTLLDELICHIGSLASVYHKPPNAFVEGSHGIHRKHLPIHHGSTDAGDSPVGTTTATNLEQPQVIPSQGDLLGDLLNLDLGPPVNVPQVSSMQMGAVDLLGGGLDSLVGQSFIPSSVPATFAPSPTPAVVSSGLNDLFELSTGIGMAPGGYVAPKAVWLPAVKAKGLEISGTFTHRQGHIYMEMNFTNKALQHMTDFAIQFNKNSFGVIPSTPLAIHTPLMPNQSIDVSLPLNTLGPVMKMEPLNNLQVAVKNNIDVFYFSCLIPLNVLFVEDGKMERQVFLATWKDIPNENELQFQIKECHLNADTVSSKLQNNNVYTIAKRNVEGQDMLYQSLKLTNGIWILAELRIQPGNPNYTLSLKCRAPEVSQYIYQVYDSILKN
row,Variant,effect of a mutation on the interaction
1,T221M,with no effect

# Variants of: B3
# Details: with pogz_human POGZ
row,Variant,effect of a mutation on the interaction
1,T589M,with no effect

# Variants of: B4
# Details: with snrpa_human SNRPA
row,Variant,effect of a mutation on the interaction
1,R145H,with no effect

# Variants of: B4
# Details: with rbmx_human RBMX
row,Variant,effect of a mutation on the interaction
1,R145H,with no effect
